The target in experiment [1] is T1, CD33-positive HL-60 cells (Homo sapiens, UniProt P20138).
T1 construct: endogenous in cells; host or cells: HL-60 cells
Briefly: Binding to CD33-positive HL-60 cells by flow cytometry. The following applies: compared with AGC0700. On the procedure:
Binding to CD33-positive HL-60 cells were studied by flow cytometry. The determination of EC50 based on the plotted curve gives an approximate value for the affinity. The commercially available mouse anti human CD33 (BD Pharmingen; #555450, 1 mg/mL) was used as a reference antibody for assessment of the affinity, including a setup with a 50:50 mixture with the mAb to be analyzed. This assay was also used to confirm that target binding affinity was not negatively affected by conjugation with the chelator.
HL-60 cells were grown in Iscove's Modified Dulbecco's Medium (IMDM; Invitrogen; #12440-046) in the presence of 20% of fetal bovine serum and penicillin/streptomycin. Approximately 20 mL cell culture was harvested by centrifugation at 4° C. for 5 min at 300 g. […] Subsequently, 20 μL of the preparation of resuspended cells was diluted 1:500 in Coulter Isoton II Diluent, and counted using a Beckman Coulter Z2 instrument (Beckman Coulter; CA, USA). […]
The mAb or conjugate to be analyzed was prepared fresh form frozen stock by shifting the storage buffer to PBS, kept at 4° C., and used within a few days after preparation. […] All samples were analysed in 96-well round or conical bottom plates. Fluorescent signals were recorded on a Beckham Coulter Cell lab Quant SC flow cytometer (Beckman Coulter; CA, USA). […]
Background: In flow cytometry, cells or beads pass a laser one at a time.

The subject of experiment [2] is CD33 positive HL-60 cells. As to the kind of experiment: Th-227-induced in vitro cell cytotoxicity (CellTiter-Glo ATP viability). Type of experiment: cell-based, human. The following applies: 3 nM or 0.3 nM, specific activity 44 kBq/μg, followed to day 7. On the procedure:
In vitro cell cytotoxicity was investigated in CD33 positive HL-60 cells. AGC0715 and the control trastuzumab conjugated AGC0015 were used to chelate Th-227 to a specific activity of 44 kBq/μg. HL-60 cells were grown at 37° C. with 5% CO2, and split 1:5 three times a week. The day before the assay the culture medium (Iscove's Modified Dulbecco's Medium (IMDM) with 20% FBS and 1% Penicillin/Streptomycin) was replaced by new medium and the volume adjusted to give 400 000 cells per mL.
About, 1 600 000 cell (4 mL) were added to each well in a 6 well plate. The plate was incubated until next day for addition of labelled mAb, or culture medium. After adding labelled mAb, or culture medium, the plate was incubated for 4 additional hours. In one experiment AGC0715 or trastuzumab-AGC0015 was added to each well to a final concentration of 3 nM. In another experiment the final concentration was 0.3 nM.
Following incubation, the cells were washed twice in culture medium, and the ATP in the supernatant and in the pellet was measured. The cells were then split 1:2 and incubated in culture medium at 37° C. with 5% CO2. The same procedure, but with only one wash, was repeated at days 2, 4, and 7.
Background: Cellular ATP, detected with luciferase, serves as a proxy for viable cell number.

Here are results for 2 molecules from patent US20150147272A1, “RADIO-PHARMACEUTICAL COMPLEXES” (Algeta ASA, priority 2012, published 2015).

T1 sequence (P20138 18-364): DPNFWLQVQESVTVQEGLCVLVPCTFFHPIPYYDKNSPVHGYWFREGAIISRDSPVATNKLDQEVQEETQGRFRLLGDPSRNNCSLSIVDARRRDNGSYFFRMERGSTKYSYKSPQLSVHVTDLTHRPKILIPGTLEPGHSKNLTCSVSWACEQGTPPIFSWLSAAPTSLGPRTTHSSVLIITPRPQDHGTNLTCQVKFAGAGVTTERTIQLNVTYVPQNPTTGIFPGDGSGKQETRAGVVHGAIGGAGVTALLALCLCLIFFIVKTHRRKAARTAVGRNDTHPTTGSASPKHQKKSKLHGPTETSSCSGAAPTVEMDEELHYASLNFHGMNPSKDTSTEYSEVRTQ

B1: AGC0715: AGC0700 conjugated to the water soluble chelator AGC0015 (12) (conjugate)
heavy: QVQLVQSGAEVKKPGSSVKVSCKASGYTFTDYNMHWVRQAPGQGLEWIGYIYPYNGGTGYNQKFKSKATITADESTNTAYMELSSLRSEDTAVYYCARGRPAMDYWGQGTLVTVSSASTKGPSVFPLAPSSKSTSGGTAALGCLVKDYFPEPVTVSWNSGALTSGVHTFPAVLQSSGLYSLSSVVTVPSSSLGTQTYICNVNHKPSNTKVDKKVEPKSCDKTHTCPPCPAPELLGGPSVFLFPPKPKDTLMISRTPEVTCVVVDVSHEDPEVKFNWYVDGVEVHNAKTKPREEQYNSTYRVVSVLTVLHQDWLNGKEYKCKVSNKALPAPIEKTISKAKGQPREPQVYTLPPSRDELTKNQVSLTCLVKGFYPSDIAVEWESNGGQPENNYKTTPPVLDSDGSFFLYSKLTVDKSRWQQGNVFSCSVMHEALHNHYTQKSLSLSPG
light: DIQMTQSPSSLSASVGDRVTITCRASESVDNYGISFMNWFQQKPGKAPKLLIYAASNQGSGVPSRFSGSGSGTDFTLTISSLQPDDFATYYCQQSKEVPWTFGQGTKVEIKRTVAAPSVFIFPPSDEQLKSGTASVVCLLNNFYPREAKVQWKVDNALQSGNSQESVTEQDSKDSTYSLSSTLTLSKADYEKHKVYACEVTHQGLSSPVTKSFNRGEC
modifications: chelator AGC0015 (12) conjugated; site not stated; none, one or two chelators on a chain
Turning to B1, in experiment [1], the binding affinity result is on record as “comparable to the non-conjugated AGC0700”.

B2: AGC0715-Th-227: antibody-conjugate AGC0715 chelated with Th-227 (conjugate)
heavy: QVQLVQSGAEVKKPGSSVKVSCKASGYTFTDYNMHWVRQAPGQGLEWIGYIYPYNGGTGYNQKFKSKATITADESTNTAYMELSSLRSEDTAVYYCARGRPAMDYWGQGTLVTVSSASTKGPSVFPLAPSSKSTSGGTAALGCLVKDYFPEPVTVSWNSGALTSGVHTFPAVLQSSGLYSLSSVVTVPSSSLGTQTYICNVNHKPSNTKVDKKVEPKSCDKTHTCPPCPAPELLGGPSVFLFPPKPKDTLMISRTPEVTCVVVDVSHEDPEVKFNWYVDGVEVHNAKTKPREEQYNSTYRVVSVLTVLHQDWLNGKEYKCKVSNKALPAPIEKTISKAKGQPREPQVYTLPPSRDELTKNQVSLTCLVKGFYPSDIAVEWESNGGQPENNYKTTPPVLDSDGSFFLYSKLTVDKSRWQQGNVFSCSVMHEALHNHYTQKSLSLSPG
light: DIQMTQSPSSLSASVGDRVTITCRASESVDNYGISFMNWFQQKPGKAPKLLIYAASNQGSGVPSRFSGSGSGTDFTLTISSLQPDDFATYYCQQSKEVPWTFGQGTKVEIKRTVAAPSVFIFPPSDEQLKSGTASVVCLLNNFYPREAKVQWKVDNALQSGNSQESVTEQDSKDSTYSLSSTLTLSKADYEKHKVYACEVTHQGLSSPVTKSFNRGEC
modifications: chelator AGC0015 (12) conjugated, chelating Th-227; site not stated
Turning to B2, the “cellular toxicity (cell viability by ATP)” value in experiment [2] is “resulted in cellular toxicity”.
